Values of other authors in patent US10889629B2, “Transfected T-cells and T-cell receptors for use in immunotherapy against cancers” (IMMATICS BIOTECHNOLOGIES GMBH, priority 2016, dated 2021).

Target: HLA-A*0201 molecule (Homo sapiens, UniProt P04439, D140Y/D185E/D98H/E176V/E277Q/G131W/G231S/I119V/I121R/I166T/I218V/L300P/L318F/N151K/N90K/P208A/P217A/Q86G/Q94H/R138H/R169H/T345S)
Details: cited from earlier work

## YLLEHVVRV (listed as Homo sapiens) [p286-1Y2L]
  binding affinity and stability towards HLA-A*0201 molecule: potent binding affinity and stability
